Measurements published in publication PMC6980855.
Changes are numbered by the printed parent chain. Numbers in names are those of the source. Blank lines part the entries; values can stand above or below the binder they belong to.

Key:
[1] = target: Bax (single cysteine 126C, Alexa647-labeled, recombinant), Q07812; assay: FRET; details: chain shown with the change, 20 nM Alexa568-labeled BimL mutant (FRET donor), Alexa647-labeled Bax acceptor
[2] = target: Bcl-XL (single cysteine 152C, Alexa647-labeled, recombinant), Q07817-1; assay: FRET; details: chain shown with the change, 20 nM Alexa568-labeled BimL mutant (FRET donor), Alexa647-labeled Bcl-XL acceptor
[3] = membranes present (liposomes), apparent Kd, parent: 29±1
[4] = membranes present (liposomes), apparent Kd, parent: 1±1

Chain of Bax (single cysteine 126C, Alexa647-labeled, recombinant), Q07812 (Q07812 whole entry): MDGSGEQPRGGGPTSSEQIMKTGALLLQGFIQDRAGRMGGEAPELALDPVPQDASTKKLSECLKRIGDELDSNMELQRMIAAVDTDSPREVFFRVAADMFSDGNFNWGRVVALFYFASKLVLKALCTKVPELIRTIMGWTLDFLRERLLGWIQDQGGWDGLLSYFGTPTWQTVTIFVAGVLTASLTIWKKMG
Chain of Bcl-XL (single cysteine 152C, Alexa647-labeled, recombinant), Q07817-1 (Q07817 whole entry): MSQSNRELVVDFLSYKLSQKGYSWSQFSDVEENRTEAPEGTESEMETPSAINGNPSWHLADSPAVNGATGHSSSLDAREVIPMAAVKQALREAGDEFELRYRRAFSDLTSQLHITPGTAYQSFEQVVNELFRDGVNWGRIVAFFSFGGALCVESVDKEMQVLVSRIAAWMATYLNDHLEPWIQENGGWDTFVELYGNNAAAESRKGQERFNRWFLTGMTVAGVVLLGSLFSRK

B1: BimL (single cysteine Q41C, Alexa568-labeled, recombinant) I90E; L94E; I97E; F101E (protein)
chain: MHHHHHHGGSGGTGGSENLYFQGTMAKQPSDVSSECDREGGQLQPAERPPQLRPGAPTSLQTEPCDRSPAPMSCDKSTQTPSPPCQAFNHYLSAMASIRQSQEEPEDLRPEIREAQEERREGDEENETYTRRVFANDYREAEDHPQMVILQLLRFIFRLVWRRH
Kd ([1]; in solution, parent: 59±7): > 1000 nM | Kd [1, 3]: > 1000 nM | Kd ([2]; in solution, parent: 8±0.4): > 1000 nM | Kd [2, 4]: > 1000 nM

B3: BimL (single cysteine Q41C, Alexa568-labeled, recombinant) R130A; R134A (protein)
chain: B1 chain with E114I, E118L, E121I, E125F, R154A, R158A
Kd [1, 3]: 64 nM | Kd [2, 4]: 20 nM

B5: BimL (single cysteine Q41C, Alexa568-labeled, recombinant) L129E (protein)
chain: B1 chain with E114I, E118L, E121I, E125F, L153E
Kd [2, 4]: 5 nM

Further binders by falling Kd [2, 4], results first:

Kd ([2]; in solution, parent: 8±0.4): 10 nM | Kd [2, 4]: 2 nM
B2: BimL (single cysteine Q41C, Alexa568-labeled, recombinant) I132E (protein)
chain: B1 chain with E114I, E118L, E121I, E125F, I156E

Kd [1, 3]: 95 nM | Kd [2, 4]: 2 nM
B4: BimL (single cysteine Q41C, Alexa568-labeled, recombinant) V124E (protein)
chain: B1 chain with E114I, E118L, E121I, E125F, V148E
